Laboratory results taken from US20200199244A1 (published 2020).

B1: BMS3h-202 (other)
VH: EVQLLESGGGLVQPGGSLRLSCAASGFTFPTAEMVWVRQAPGKGLEWVSSISASGGSTYYADSVKGRFTISRDNSKNTLYLQMNSLRAEDTAVYYCAKEPVSYVATFDYWGQGTLVTVSS
B2: BMS3h-202-11 (other)
VH: EVQLLESGGGLVQPGGSLRLSCAASGFTFPTAEMLWVRKAPGKGLEWVSSISASGGSTYYADSVKGRFTISRDNSKNTLYLQMNSLRAEDAAVYYCAKEPVSYVATFDYWGQGTLVTVSS
B3: BMS3h-202 (other)
VH: EVQLLESGGGLVQPGGSLRLSCAASGFTFPTAEMVWVRQAPGKGLEWVSSISASGGSTYYADSVKGRFTISRDNSKNTLYLQMNSLRAEDTAVYYCAKEPVSYVATFDYWGQGTLVTVSS
notes: domain antibody (dAb): single human VH domain
B4: BMS3h-202-10 (other)
VH: EVQLLESGGGLVQPGGSLRLSCAASGFTFPTAEMLWVRQAPGKGLEWVSSISASGGSTYYADSVKGRFTISRDNSKNTLYLQMNSLRAEDTAVYYCAKEPVYYVATFDYWGQGTLVTVSS
B5: BMS3h-202-5 (other)
VH: EVQLLESGGGLVQPGGSLRLSCAASGFTFPTAEMLWVRQAPGKGLEWVSSISASGGSTYYADSVKGRFTISRDNSKNTLYLQMNSLRAEDTAVYYCAKEPVSYVATFDYWGQGTLVTVSS
B6: BMS3h-274 (other)
VH: EVQLLESGGGLVQPGGSLRLSCAASGFTFDSYAMGWARQAPGKGLEWVSAIGAKGLSTYYADSVKGRFTISRDNSKNTLYLQMNSLRAEDTAVYYCAKAARGKFDYWGQGTLVTVSS
B7: BMS3h-193-25 (other)
VL: DIQMTQSPSSLSASVGDRVTITCRASQTIERRLNWYQQKPGKAPRLLIYLATRLQSGVPSRFSGSGSGTDFTLTISSLQPEDFATYYCHQYESPPLTFGQGTKVEIKR
B8: BMS3h-198 (other)
VH: EVQLLESGGGLVQPGGSLRLSCAASGFTFAGYEMWWVRQAPGKGLERVSAISGSGGSTYYADSVKGRFTISRDDSKNTLYLQMNSLRAEDTAVYYCAKDPYSFDYWGQGTLVTVSS
B9: BMS3h-38 (other)
VH: EVQLLESGGGLVQPGGSLRLSCAASGFTFEEEEMIWVRQAPGKGLEWVSAISGSGGSTYYADSVKGRFTISRDNSKNTLYLQMNSLRAEDTAVYYCAKEPFRFDYWGQGTLVTVSS
notes: as for B3
B10: BMS3h-198-28 (other)
VH: EVQLLESGGGLVQPGGSLRLSCAASGFTFAGYEMWWFRQAPGKGLERVSAISGSGGSTYYADSVKGRFTISRDDSKNTLYLQMNSLRAEDTAVYYCAKDPYSFDNWGQGTLVTVSS
B11: BMS3h-198-24 (other)
VH: EVQLLESGGGLVQPGGSLRLSCAASGFTFAGYEMWWVRQAPGKGLERVSAISGSGGSTYYADSVKGRFTISRDDSKNTLYLQMNSLRAEDTAVYYCAKEPYSFDSWGQGTLVTVSS
B12: BMS3h-198 (other)
VH: EVQLLESGGGLVQPGGSLRLSCAASGFTFAGYEMWWVRQAPGKGLERVSAISGSGGSTYYADSVKGRFTISRDDSKNTLYLQMNSLRAEDTAVYYCAKDPYSFDYWGQGTLVTVSS
notes: as for B3
B13: BMS3h-41 (other)
VH: EVQLLESGGGLVQPGGSLRLSCAASGFTFTEYEMIWVRQAPGKGLEWVSSISGNGANTYYADSVKGRFTISRDNSKNTLYLQMNSLRAEDTAVYYCAKEPLRFDYWGQGTLVTVSS
notes: as for B3
B14: BMS3h-56 (other)
VH: EVQLLESGGGLVQPGGSLRLSCAASGFTFRDYEMWWVRQAPGKGLERVSAINPQGTRTYYADSVKGRFTISRDNSKNTLYLQMNSLRAEDTAVYYCAKLPFIFDYWGQGTLVTVSS
notes: as for B3
B15: BMS3h-37 (other)
VH: EVQLLESGGGLVQPGGSLRLSCAASGFTFEWYEMQWVRQAPGKGLEWVSAISGDGYRTYYADSVKGRFTISRDNSKNTLYLQMNSLRAEDTAVYYCAKELGYFDYWGQGTLVTVSS
notes: as for B3
B16: BMS3h-43 (other)
VH: EVQLLESGGGLVQPGGSLRLSCTASGFTFNMYEMSWVRQAPGKGLEWVSGISRRGFTTYYADSVKGRFTISRDNSKNTLYLQMNSLRAEDTAVYYCAKEPITYAMRYARFDYWGQGTLVTVSS
notes: as for B3
B17: BMS3h-217 (other)
VL: DIQMTQSPSSLSASVGDRVTITCRASHFIGTLLSWYQQKPGKAPKLLITYGSLLQSGVPSRFSGSGSGTDFTLTISSLQPEDFATYYCGQGVLWPATFGQGTKVEIKR
B18: BMS3h-217-7 (other)
VL: DIQMTQSPSSLSASVGDRVTITCRASHFIGSLLSWYQHKPGKAPKLLITYGSLLQSGVPSRFSGSGSGTDFTLTISSLQPEDFATYYCGQGVLWPATFGQGTKVEIKR
B19: BMS3h-217-5 (other)
VL: DIQMTQSPSFLSASVGDRVTITCRASHFIATLLSWYQQKPGKAPKLLITYGSLLQSGVPSRFSGSGSGTDFTLTISSLQPEDFATYYCGQGVLWPPTFGQGTKVEIKR
B20: BMS3h-217-4 (other)
VL: DIQMTQSPSSLSASVGDRVTITCRASHFIATLLSWYQQKPGKAPKLLITYGSLLQSGVPSRFSGSGSGTDFTLTISSLQPEDFATYYCGQGVLWPPTFGQGTKVEIKR
B21: BMS3h-217-9 (other)
VL: DIQMTQSPSSLSASVGDRVTITCRASHFIGTLLSWYQHKPGKAPKLLITYGSMLQSGVPSRFSGSGSGTDFTLTISSLQPEDFATYYCGQGVLWPATFGQGTKVEIKR
B22: BMS3h-217-17 (other)
VL: DIQIIQSPSSLSASVGDRVTITCRASHFIGTLLSWYQQKPGKAPKLLITYGSLLQSGVPSRFSGSGSGTDFTLTISSLQPEDFATYYCGQGVLWPPTFGQGTKVEIKR
B23: BMS3h-217-30 (other)
VL: DIQMTQSPSSLSASVGDRVTITCRASHFIGTLLSWYQLKPGKAPKLLITYGSWLQSGVPSRFSGSGSGTDFTLTISSLQPEDFATYYCGQGVLWPATFGQGTKVEIKR
B24: BMS3h-217-31 (other)
VL: DIQMTQSPSSLSASVGDRVTITCRASHFIGTLLSWYQQKPGKAPKLLITYGSLLQSGVPSRFSGSGFGTDFTLTISSLQPEDFATYYCGQEVLWPATFGQGTKVEIKR
B25: BMS3h-217-2305 (other)
VL: DIQMTQSPSSLSASVGDRVTITCRASHFIGSLLSWYQVKPGKAPKLLITWASYLQSGVPSRFSGSGSGTDFTLTISSLQPEDFATYYCGQGVLWPATFGQGTTVEIKR
B26: BMS3h-106 (other)
VH: EVQLLESGGGLVQPGGSLRLSCAASGFTFSTYHMQWVRQAPGKGLEWVSMIDADGLGTYYADSVKGRFTISRDNSKNTLYLQMNSLRAEDTAVYYCAKPGPQFGQFDYWGQGTLVTVSS
notes: as for B3
B27: BMS3h-197 (other)
VH: EVQLLESGGGLVQPGGSLRLSCAASGFTFGSAAMDWVRQAPGKGLEWVSSINDMGSNTYYADSVKGRFTISRDNSKNTLYLQMNSLRAEDTAVYYCAKQGGRFDYWGQGTLVTVSS
notes: as for B3
B28: BMS3h-131 (other)
VL: DIQMTQSPSSLSASVGDRVTITCRANSSILWALAWYQQKPGKAPKLLIESSSGLQSGVPSRFSGSGSGTDFTLTISSLQPEDFATYYCVQNAGWPGTFGQGTKVEIKR
notes: domain antibody (dAb): single human V kappa domain
B29: BMS3h-107 (other)
VH: EVQLLESGGGLVQPGGSLRLSCAASGFTFSGYDMQWVRQAPGKGLEWVSTISASGVFTYYADSVKGRFTTSRDNSKNTLYLQMNSLRAEDTAVYYCAKYPNRFALNNFDYWGQGTLVTVSS
notes: as for B3

Tests used:
human CD40 = human CD40 (human, UniProt P25942 21-277); assay: cell-based or functional assay
Macaca fascicularis CD40 = molecular target: T1, Macaca fascicularis CD40 (Macaca fascicularis (cynomolgus monkey), UniProt P25942 21-277 (human entry)); assay: cell-based or functional assay
T1 chain: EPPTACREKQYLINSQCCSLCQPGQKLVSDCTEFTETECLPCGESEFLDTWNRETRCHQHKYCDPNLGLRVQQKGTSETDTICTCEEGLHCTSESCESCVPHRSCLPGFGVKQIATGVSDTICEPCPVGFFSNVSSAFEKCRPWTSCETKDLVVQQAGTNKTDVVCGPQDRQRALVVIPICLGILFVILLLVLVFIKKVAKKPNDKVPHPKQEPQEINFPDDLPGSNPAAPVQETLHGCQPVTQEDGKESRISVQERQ

[1] = molecular target: T2, biotinylated human CD40 (BMS) (human, UniProt P25942 21-193, limits assumed, biotinylated (sites not given)); assay: BIAcore SPR, immobilised biotinylated human CD40, 1:1 fit;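 further: dAbs passed as doubling dilutions over CD40 chip at 25 °C in HBS-EP running buffer, 300 s dissociation, traces double-referenced against blank flow cell and buffer injection, global Langmuir fit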
T2 construct: Ligand immobilised on the streptavidin BIAcore chip

Binder	hIZCD40L-driven Human B Cell Proliferation EC50 (human CD40) [nM]	Kd [1] [nM]	koff [1] [s⁻¹]	kon [1] [M⁻¹ s⁻¹]	other results
B1	6400	–	–	–	hIZCD40L-driven Cyno B Cell Proliferation EC50 (Macaca fascicularis CD40): > 7000 nM
B2	201	–	–	–	–
B3	–	2000	0.0035	1700	–
B4	289	–	–	–	–
B5	6500	–	–	–	–
B6	–	–	–	–	hIZCD40L-driven Cyno B Cell Proliferation EC50 (Macaca fascicularis CD40): > 7000 nM
B7	303	–	–	–	hIZCD40L-driven Cyno B Cell Proliferation EC50 (Macaca fascicularis CD40): 2200 nM
B8	554	–	–	–	hIZCD40L-driven Cyno B Cell Proliferation EC50 (Macaca fascicularis CD40): > 7000 nM
B9	–	300	0.0062	21000	–
B10	20	–	–	–	–
B11	34	–	–	–	–
B12	–	240	0.00038	1600	–
B13	–	840	0.0083	9900	–
B14	–	180	0.004	23000	–
B15	–	190	0.0036	19000	–
B16	–	2100	0.0031	1400	–
B17	3200	–	–	–	–
B18	220	–	–	–	–
B19	–	–	–	–	hIZCD40L-driven Cyno B Cell Proliferation EC50 (Macaca fascicularis CD40): 15 nM
B20	–	–	–	–	hIZCD40L-driven Cyno B Cell Proliferation EC50 (Macaca fascicularis CD40): 27 nM
B21	380	–	–	–	–
B22	1950	–	–	–	–
B23	80	–	–	–	CHO-hCD40L-driven DC Activation IL-12 EC50 (human CD40): > 7700 nM
B24	> 700	–	–	–	–
B25	11	–	–	–	–
B26	–	350	0.046	130000	–
B27	–	180	0.014	81000	–
B28	–	930	0.022	24000	–
B29	–	850	0.17	200000	–
